Source: article PMC6048597 (Biochemistry, 2018)

Tests used:
Assay in all cases: ITC
[1] = molecular target: T1, hBAZ2A PHD finger (residues 1673–1728), wild type (human, UniProt Q9UIF9 1673-1728)
T1 sequence (looked up): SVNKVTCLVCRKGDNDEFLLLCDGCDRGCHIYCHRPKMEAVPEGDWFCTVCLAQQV

hKDM5B PHD V346A = molecular target: T2, hKDM5B PHD V346A (human, UniProt Q9UGL1 305-366, V346A)
T2 sequence (looked up): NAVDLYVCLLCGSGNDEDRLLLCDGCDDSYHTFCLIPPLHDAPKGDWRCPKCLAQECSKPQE

hAIRE PHD C310L = molecular target: T3, hAIRE PHD C310L (human, UniProt O43918 294-343, C310L)
T3 chain (looked up): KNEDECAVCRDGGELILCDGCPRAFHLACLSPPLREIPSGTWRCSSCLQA

ARTKQTARKSTW [Histone H3 residues 1–11 (H3-1-11W)]
binding result [1]: binds
binding result (hKDM5B PHD V346A): binds
fold increase in affinity against the wild type AIRE PHD (hAIRE PHD C310L): ~15 fold
